Where “and” joins values, the source holds several entries; their conditions need not be identical. Identical values can stand only once.
Key:
[1] = target: T1, HER3 on HER3-expressing tumor cells (human, UniProt P21860 20-1342); test: flow cytometry, HER3-expressing MCF-7 cells
T1 construct: Endogenous HER3 of human tumor cell lines (MCF-7, FaDu, BT474, A431, NCI-N87, A549, SKBR-3, Colo205, HCT-116, A375 and melanoma lines); also called cellular receptor HER3; cell surface expressed HER3

[2] = target: T2, CD3 on CD3-expressing Jurkat cells (human, UniProt P07766 23-207); test: flow cytometry, CD3-positive Jurkat cells
T2 construct: whole, on cells; also called human CD3
T2 sequence (P07766 23-207): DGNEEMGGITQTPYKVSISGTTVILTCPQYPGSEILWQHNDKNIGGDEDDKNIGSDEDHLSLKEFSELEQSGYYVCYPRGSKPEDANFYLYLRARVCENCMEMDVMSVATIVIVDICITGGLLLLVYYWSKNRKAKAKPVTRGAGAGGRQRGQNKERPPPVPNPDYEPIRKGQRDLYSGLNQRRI

[3] = target: T1, HER3 on HER3-expressing tumor cells; test: cell-based or functional assay
[4] = target: T3, HER3-Fc fusion comprising the extracellular domain (aa 27-599) of human HER3 (human, UniProt P21860 27-599); test: ELISA, coated HER3-Fc (aa 27-599), anti-His-HRP
T3 construct: also called HER3-Fc fusion protein; not shown: Fc part

[5] = target: T2, CD3 on CD3-expressing Jurkat cells; test: flow cytometry, CD3-expressing Jurkat cells
[6] = target: T4, mouse HER3-Fc fusion protein (extracellular region of mouse HER3 fused to a human Fc region) (mouse, UniProt Q61526 20-641); test: ELISA, immobilized mouse HER3 extracellular region fused to human Fc, scFv detected with anti-His-tag antibody
T4 construct: extracellular domain; not shown: human Fc region
T4 sequence (Q61526 20-641): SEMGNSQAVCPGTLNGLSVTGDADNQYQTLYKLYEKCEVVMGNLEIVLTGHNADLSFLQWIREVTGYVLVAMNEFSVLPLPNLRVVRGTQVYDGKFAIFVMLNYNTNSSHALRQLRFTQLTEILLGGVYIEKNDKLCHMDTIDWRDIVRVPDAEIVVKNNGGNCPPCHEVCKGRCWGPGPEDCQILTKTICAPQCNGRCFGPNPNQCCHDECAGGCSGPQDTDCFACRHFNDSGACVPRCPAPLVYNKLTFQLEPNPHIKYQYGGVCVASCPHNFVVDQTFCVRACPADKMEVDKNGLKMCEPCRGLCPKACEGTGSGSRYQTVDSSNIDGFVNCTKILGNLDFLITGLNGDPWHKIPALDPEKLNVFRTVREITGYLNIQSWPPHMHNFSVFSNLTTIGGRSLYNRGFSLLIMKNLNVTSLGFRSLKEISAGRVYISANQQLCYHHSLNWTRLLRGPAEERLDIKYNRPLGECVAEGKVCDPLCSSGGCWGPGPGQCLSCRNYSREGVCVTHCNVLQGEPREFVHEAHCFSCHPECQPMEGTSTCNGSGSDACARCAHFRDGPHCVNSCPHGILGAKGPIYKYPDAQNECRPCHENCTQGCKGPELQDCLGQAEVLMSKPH

HER2-ECD protein = target: T5, HER2-ECD protein (UniProt P04626 23-652, limits assumed); test: ELISA, immobilized HER2-ECD
T5 construct: extracellular domain

[7] = target: T6, HER3-His (HER3 aa 27-599 of the extracellular domain fused C-terminally with a hexahistidyl-tag) (human, UniProt P21860 27-599); test: sandwich ELISA: coated EGFR-Fc, serial dilution of Db3-43xhu225-Ig, then 300 nM HER3-His detected by anti-His-HRP
T6 construct: also called soluble His-tagged HER3; His-tagged extracellular domain of HER3; not shown: C-terminal hexahistidyl-tag

[8] = target: T1, HER3 on HER3-expressing tumor cells; test: flow cytometry, HER3-positive MCF-7 cells; MCF-7 cells
[9] = target: T6, HER3-His (HER3 aa 27-599 of the …); test: ELISA, coated His-tagged HER3 ECD (aa 27-599)
EGFR on tumor cells [10] = target: T7, EGFR on tumor cells (human, UniProt P00533 25-1210); test: flow cytometry, FaDu cells (very high EGFR, low HER3; the filing says binding is most likely through the hu225 moieties); FaDu cells
T7 construct: whole, on cells; also called EGFR on FaDu and SKBR-3 cells

EGFR on tumor cells [11] = target: T7, EGFR on tumor cells; test: flow cytometry, SKBR-3 cells (carry EGFR and HER3; bispecific, number not split between the two targets); SKBR-3 cells (EGFR and HER3 in similar ranges)
[12] = target: T1, HER3 on HER3-expressing tumor cells; test: as above

B1: scDb3-43xCD3-scFv3-43 (bispecific antibody)
chain: QLQQSGPGLVKPSQTLSLTCAISGDSVSSNRAAWNWIRQSPSRGLEWLGRTYYRSKWYNDYAQSLKSRITINPDTPKNQFSLQLNSVTPEDTAVYYCARDGQLGLDALDIWGQGTMVTVSSGGGGSDIQMTQSPSSLSASVGDRVTITCRASQDIRNYLNWYQQKPGKAPKLLIYYTSRLHSGVPSRFSGSGSGTDFTFTISSLQPEDIATYYCQQGNTLPWTFGQGTKLEIKRGGGGSGGGGSGGGGSQVQLVQSGAEVKKPGSSVKVSCKASGGTFSGYTMNWVRQAPGQGLEWMGLINPYKGVSTYNGKFKDRVTITADKSTSTAYMELSSLRSEDTAVYYCARSGYYGDSDWYFDVWGQGTLVTVSSGGGGSQAGLTQPPAVSVAPGQTASITCGRDNIGSRSVHWYQQKPGQAPVLVVYDDSDRPAGIPERFSGSNYENTATLTISRVEAGDEADYYCQVWGITSDHVVFGGGTKLTVLAAAGGSGGGGSGGGTQVQLQQSGPGLVKPSQTLSLTCAISGDSVSSNRAAWNWIRQSPSRGLEWLGRTYYRSKWYNDYAQSLKSRITINPDTPKNQFSLQLNSVTPEDTAVYYCARDGQLGLDALDIWGQGTMVTVSSGGGGSGGGGSGGGGSQAGLTQPPAVSVAPGQTASITCGRDNIGSRSVHWYQQKPGQAPVLVVYDDSDRPAGIPERFSGSNYENTATLTISRVEAGDEADYYCQVWGITSDHVVFGGGTKLTVLGSLHHHHHH
notes: Trivalent: two sites for HER3, one for CD3; also called scDb-scFv; scDb3-43xhuU3-scFv3-43
EC50 [1]: 0.0316 nM and 0.0314 nM | EC50 [2]: 4.2 nM | IL-2 release of PBMC with HER3-expressing MCF-7 cells (EC50) [3]: 0.29 nM | killing of MCF-7 cells by PBMC, MTT assay (EC50) [3]: 0.034 nM | EC50 [4]: 0.81 nM | EC50 [5]: 13.2 nM

B2: scFv 3-43 (scFv)
scFv: QVQLQQSGPGLVKPSQTLSLTCAISGDSVSSNRAAWNWIRQSPSRGLEWLGRTYYRSKWYNDYAQSLKSRITINPDTPKNQFSLQLNSVTPEDTAVYYCARDGQLGLDALDIWGQGTMVTVSSGGGGSGGGGSGGGGSQAGLTQPPAVSVAPGQTASITCGRDNIGSRSVHWYQQKPGQAPVLVVYDDSDRPAGIPERFSGSNYENTATLTISRVEAGDEADYYCQVWGITSDHVVFGGGTKLTVLG
binding result [6]: binds

B3: IgG 2-35 (antibody, V domains shown)
VH: QMQLVQSGAEVKKPGESLKISCKGSGYSFTSYWIGWVRQMPGKGLEWMGIIYPGDSDTRYSPSFQGQVTISADKSISTAYLQWSSLKASDTAMYYCARLGRSGSYYNYGMDVWGQGTTVTVSS
VL: QAVVTQEPSFSVSPGGTVTLTCGLSSGSVSSSYYPSWYQQTSGQPPRTLIYSTDTRSSGVPDRFSGSILGDKAALTITGAQADDESDYYCMLYMGSGISVFGGGTKLAVL
notes: Anti-HER2 antibody found by phage display
EC50 (HER2-ECD protein): ~1.5 nM

B4: Db3-43xhu225-Ig (bispecific antibody, human IgG1, kappa)
light: QVQLQQSGPGLVKPSQTLSLTCAISGDSVSSNRAAWNWIRQSPSRGLEWLGRTYYRSKWYNDYAQSLKSRITINPDTPKNQFSLQLNSVTPEDTAVYYCARDGQLGLDALDIWGQGTMVTVSSGGGGSDIQLTQSPSFLSASVGDRVTITCRASQSIGTNIHWYQQKPGKAPKLLIKYASESISGVPSRFSGSGSGTEFTLTISSLQPEDFATYYCQQNNNWPTTFGAGTKLEIKRTVAAPSVFIFPPSDEQLKSGTASVVCLLNNFYPREAKVQWKVDNALQSGNSQESVTEQDSKDSTYSLSSTLTLSKADYEKHKVYACEVTHQGLSSPVTKSFNRGEC
heavy: EVQLVESGGGLVQPGGSLRLSCAASGFSLTNYGVHWVRQAPGKGLEWLGVIWSGGNTDYNTPFTSRFTISRDNSKNTLYLQMNSLRAEDTAVYYCARALTYYDYEFAYWGQGTTVTVSSGGGGSQAGLTQPPAVSVAPGQTASITCGRDNIGSRSVHWYQQKPGQAPVLVVYDDSDRPAGIPERFSGSNYENTATLTISRVEAGDEADYYCQVWGITSDHVVFGGGTKLTVLASTKGPSVFPLAPSSKSTSGGTAALGCLVKDYFPEPVTVSWNSGALTSGVHTFPAVLQSSGLYSLSSVVTVPSSSLGTQTYICNVNHKPSNTKVDKKVEPKSCDKTHTCPPCPAPPVAGPSVFLFPPKPKDTLMISRTPEVTCVVVDVSHEDPEVKFNWYVDGVEVHNAKTKPREEQYNSTYRVVSVLTVLHQDWLNGKEYKCKVSNKGLPSSIEKTISKAKGQPREPQVYTLPPSRDELTKNQVSLTCLVKGFYPSDIAVEWESNGQPENNYKTTPPVLDSDGSFFLYSKLTVDKSRWQQGNVFSCSVMHEALHNHYTQKSLSLSPGK
notes: Light chain VH3-43xVLhu225-CL, heavy chain VHhu225xVLhu3-43-CH1-CH2-CH3; two sites for EGFR and two for HER3; also called Db-Ig; bispecific and tetravalent diabody-Ig fusion protein
EC50 [7]: 0.85 nM | EC50 [8]: 0.054 nM | EC50 [9]: 0.26 nM | EC50 (EGFR on tumor cells [10]): 0.14 nM | EC50 (EGFR on tumor cells [11]): 0.047 nM | EC50 [12]: 0.047 nM

B5: scDb 3-43xCD3 (bispecific antibody)
chain: QLQQSGPGLVKPSQTLSLTCAISGDSVSSNRAAWNWIRQSPSRGLEWLGRTYYRSKWYNDYAQSLKSRITINPDTPKNQFSLQLNSVTPEDTAVYYCARDGQLGLDALDIWGQGTMVTVSSGGGGSDIQMTQSPSSLSASVGDRVTITCRASQDIRNYLNWYQQKPGKAPKLLIYYTSRLHSGVPSRFSGSGSGTDFTFTISSLQPEDIATYYCQQGNTLPWTFGQGTKLEIKRGGGGSGGGGSGGGGSQVQLVQSGAEVKKPGSSVKVSCKASGGTFSGYTMNWVRQAPGQGLEWMGLINPYKGVSTYNGKFKDRVTITADKSTSTAYMELSSLRSEDTAVYYCARSGYYGDSDWYFDVWGQGTLVTVSSGGGGSQAGLTQPPAVSVAPGQTASITCGRDNIGSRSVHWYQQKPGQAPVLVVYDDSDRPAGIPERFSGSNYENTATLTISRVEAGDEADYYCQVWGITSDHVVFGGGTKLTVLAAAHHHHHH
notes: also called scDb3-43xhuU3
EC50 [1]: 1.1 nM | EC50 [2]: 2.4 nM | IL-2 release of PBMC with HER3-expressing Colo205 cells (EC50) [3]: 0.3 nM | IL-2 release of PBMC with HER3-expressing MCF-7 cells (EC50) [3]: 0.48 nM | killing of MCF-7 cells by PBMC, MTT assay (EC50) [3]: 0.084 nM | EC50 [4]: 3.3 nM and 4.87 nM | EC50 [5]: 3.1 nM

Source: patent US20190194350A1 (UNIVERSITAT STUTTGART, published 2019)
